Test results as given in paper PMC2120187.

Biological target: murine IgG heavy chain (murine)
Experiment: immunoprecipitation with anti-mouse IgG and non-reducing SDS-PAGE

## murine IgG heavy chain
  stoichiometry N: 2
